From paper PMC9482650, “Quantitative fragmentomics allow affinity mapping of interactomes” (Nature Communications, 2022)

T1: HTRA3, P83110
T1 sequence (P83110 354-453, limits assumed, looked up): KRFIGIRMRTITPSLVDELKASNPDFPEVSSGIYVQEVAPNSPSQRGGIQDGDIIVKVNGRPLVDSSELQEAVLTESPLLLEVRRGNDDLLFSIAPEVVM

T2: MPP7, Q5T2T1
T2 sequence (Q5T2T1 134-230, limits assumed, looked up): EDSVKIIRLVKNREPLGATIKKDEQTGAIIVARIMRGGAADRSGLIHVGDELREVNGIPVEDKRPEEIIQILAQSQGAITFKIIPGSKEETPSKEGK

T3: SNTG1, Q9NSN8
T3 sequence (Q9NSN8 52-150, limits assumed, looked up): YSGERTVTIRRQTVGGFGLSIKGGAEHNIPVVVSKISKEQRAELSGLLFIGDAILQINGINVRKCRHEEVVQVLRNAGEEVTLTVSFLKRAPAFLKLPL

T4: SNTA1, Q13424
T4 sequence (Q13424 82-180, limits assumed, looked up): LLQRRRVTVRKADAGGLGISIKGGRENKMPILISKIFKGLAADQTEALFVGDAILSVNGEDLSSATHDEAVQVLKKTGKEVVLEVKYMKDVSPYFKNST

T5: SYNJ2BP, P57105
T5 sequence (P57105 8-110, limits assumed, looked up): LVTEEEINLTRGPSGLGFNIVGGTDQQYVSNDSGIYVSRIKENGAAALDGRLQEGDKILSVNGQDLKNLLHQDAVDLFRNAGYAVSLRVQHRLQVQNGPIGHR

T6: SNTG2, Q9NY99
T6 sequence (Q9NY99 68-166, limits assumed, looked up): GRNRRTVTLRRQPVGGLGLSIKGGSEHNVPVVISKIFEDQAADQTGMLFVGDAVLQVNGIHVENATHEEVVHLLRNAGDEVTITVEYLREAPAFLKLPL

T7: PCLO, Q9Y6V0
T7 sequence (Q9Y6V0 4491-4600, limits assumed, looked up): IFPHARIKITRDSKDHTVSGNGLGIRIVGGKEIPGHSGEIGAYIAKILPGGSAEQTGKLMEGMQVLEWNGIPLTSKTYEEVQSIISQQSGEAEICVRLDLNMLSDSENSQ

T8: LNX2_3, Q8N448
T8 sequence (Q8N448 463-564, limits assumed, looked up): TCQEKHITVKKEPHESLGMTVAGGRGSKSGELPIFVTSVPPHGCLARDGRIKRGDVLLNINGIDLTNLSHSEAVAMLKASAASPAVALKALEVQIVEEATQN

T9: PARD3B_1, Q8TEW8
T9 sequence (Q8TEW8 196-299, limits assumed, looked up): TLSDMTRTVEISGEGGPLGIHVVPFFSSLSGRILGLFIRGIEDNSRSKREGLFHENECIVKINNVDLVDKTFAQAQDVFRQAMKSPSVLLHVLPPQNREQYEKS

T10: HTRA4, P83105
T10 sequence (P83105 378-476, limits assumed, looked up): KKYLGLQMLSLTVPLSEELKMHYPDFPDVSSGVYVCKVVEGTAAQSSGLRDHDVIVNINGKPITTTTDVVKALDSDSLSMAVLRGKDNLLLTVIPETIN

T11: CARD11, Q9BXL7
T11 sequence (Q9BXL7 662-765, limits assumed, looked up): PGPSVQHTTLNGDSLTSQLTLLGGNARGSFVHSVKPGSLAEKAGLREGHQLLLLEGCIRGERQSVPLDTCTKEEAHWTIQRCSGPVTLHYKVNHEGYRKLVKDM


Columns and labels:
Experiment in all cases: holdup assay
Set-up in all cases: key: below the threshold = too weak to quantify, mostly under pKd 3.1 to 4
Settings in all cases: plain residues with an end cap or a label only (N-terminal biotin on a linker: ado-ado)
IL16_1, Q14005 = molecular target: IL16_1, Q14005
MAST1, Q9Y2H9 = molecular target: MAST1, Q9Y2H9
ARHGEF12, Q9NZN5-2 = molecular target: ARHGEF12, Q9NZN5-2
HTRA3, P83110 = molecular target: T1, HTRA3, P83110
MPP7, Q5T2T1 = molecular target: T2, MPP7, Q5T2T1
TJP1_2, Q07157 = molecular target: TJP1_2, Q07157
SNTG1, Q9NSN8 = molecular target: T3, SNTG1, Q9NSN8
NHERF2_2, Q15599 = molecular target: NHERF2_2, Q15599
SNTA1, Q13424 = molecular target: T4, SNTA1, Q13424
SYNJ2BP, P57105 = molecular target: T5, SYNJ2BP, P57105
SNTG2, Q9NY99 = molecular target: T6, SNTG2, Q9NY99
Inadl_3, Q8NI35 = molecular target: Inadl_3, Q8NI35
PCLO, Q9Y6V0 = molecular target: T7, PCLO, Q9Y6V0
Inadl_4, Q8NI35 = molecular target: Inadl_4, Q8NI35
NOS1, P29475 = molecular target: NOS1, P29475
LNX2_3, Q8N448 = molecular target: T8, LNX2_3, Q8N448
PARD3_3, Q8TEW0 = molecular target: PARD3_3, Q8TEW0
PARD3B_1, Q8TEW8 = molecular target: T9, PARD3B_1, Q8TEW8
HTRA4, P83105 = molecular target: T10, HTRA4, P83105
Inadl_9, Q8NI35 = molecular target: Inadl_9, Q8NI35
NHERF4_1, Q86UT5-2 = molecular target: NHERF4_1, Q86UT5-2
CARD11, Q9BXL7 = molecular target: T11, CARD11, Q9BXL7
SCRIB_2, Q14160 = molecular target: SCRIB_2, Q14160
DLG2_3, Q15700 = molecular target: DLG2_3, Q15700
AHNAK1, Q09666 = molecular target: AHNAK1, Q09666
MAGI2_5, Q86UL8 = molecular target: MAGI2_5, Q86UL8
Chain of MAGI2_5, Q86UL8 (Q86UL8 915-1017): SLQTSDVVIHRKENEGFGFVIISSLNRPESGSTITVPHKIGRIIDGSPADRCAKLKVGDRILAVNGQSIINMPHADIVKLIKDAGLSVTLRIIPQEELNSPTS

Chain of IL16_1, Q14005 (Q14005 210-306): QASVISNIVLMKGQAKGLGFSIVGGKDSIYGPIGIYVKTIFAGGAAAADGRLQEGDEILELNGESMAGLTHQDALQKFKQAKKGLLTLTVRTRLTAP
Chain of TJP1_2, Q07157 (Q07157 181-274): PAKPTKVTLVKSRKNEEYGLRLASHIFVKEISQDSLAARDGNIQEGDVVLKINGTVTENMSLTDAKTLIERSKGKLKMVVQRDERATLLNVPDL
Chain of PARD3_3, Q8TEW0 (Q8TEW0 582-685): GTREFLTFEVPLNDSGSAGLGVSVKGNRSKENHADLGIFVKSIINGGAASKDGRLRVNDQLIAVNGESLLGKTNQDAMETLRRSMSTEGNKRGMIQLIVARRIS
Chain of NHERF2_2, Q15599 (Q15599 142-238): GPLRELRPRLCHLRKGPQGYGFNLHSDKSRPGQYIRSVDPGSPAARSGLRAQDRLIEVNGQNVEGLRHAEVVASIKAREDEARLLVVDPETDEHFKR
Chain of Inadl_9, Q8NI35 (Q8NI35 1530-1615): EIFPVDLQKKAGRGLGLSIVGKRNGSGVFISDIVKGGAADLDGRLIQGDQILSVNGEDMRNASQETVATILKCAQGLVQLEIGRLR
Chain of ARHGEF12, Q9NZN5-2 (Q9NZN5 other isoform, or with tags, fused parts or gaps): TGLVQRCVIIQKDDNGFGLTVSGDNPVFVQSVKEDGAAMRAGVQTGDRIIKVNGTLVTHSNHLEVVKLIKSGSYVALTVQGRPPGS
Chain of Inadl_3, Q8NI35 (Q8NI35 359-469): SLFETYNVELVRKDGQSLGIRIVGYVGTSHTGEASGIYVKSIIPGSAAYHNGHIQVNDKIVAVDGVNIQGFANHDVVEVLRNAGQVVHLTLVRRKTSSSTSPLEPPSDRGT
Chain of AHNAK1, Q09666 (Q09666 4-100): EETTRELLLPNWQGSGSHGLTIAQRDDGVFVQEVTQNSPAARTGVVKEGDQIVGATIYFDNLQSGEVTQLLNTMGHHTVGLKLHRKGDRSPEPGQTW
Chain of NHERF4_1, Q86UT5-2 (Q86UT5 other isoform, or with tags, fused parts or gaps): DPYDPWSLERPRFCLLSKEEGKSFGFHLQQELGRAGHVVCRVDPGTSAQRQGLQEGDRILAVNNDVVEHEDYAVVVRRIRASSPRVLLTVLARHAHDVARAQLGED
Chain of NOS1, P29475 (P29475 9-101): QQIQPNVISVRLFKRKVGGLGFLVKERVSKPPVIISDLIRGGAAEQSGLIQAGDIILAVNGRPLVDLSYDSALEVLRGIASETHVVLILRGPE
Chain of Inadl_4, Q8NI35 (Q8NI35 547-651): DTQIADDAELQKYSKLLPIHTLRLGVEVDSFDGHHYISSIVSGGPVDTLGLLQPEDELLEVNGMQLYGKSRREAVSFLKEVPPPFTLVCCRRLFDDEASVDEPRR
Chain of MAST1, Q9Y2H9 (Q9Y2H9 962-1065): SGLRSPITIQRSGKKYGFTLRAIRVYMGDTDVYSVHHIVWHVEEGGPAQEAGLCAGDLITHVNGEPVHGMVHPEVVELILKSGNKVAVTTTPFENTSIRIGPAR
Chain of SCRIB_2, Q14160 (Q14160 857-960): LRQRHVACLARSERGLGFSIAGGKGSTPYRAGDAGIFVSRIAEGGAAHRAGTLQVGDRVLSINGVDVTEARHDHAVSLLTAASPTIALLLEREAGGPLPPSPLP

| Binder | pKd (IL16_1, Q14005) | pKd (MAST1, Q9Y2H9) | pKd (ARHGEF12, Q9NZN5-2) | pKd (HTRA3, P83110) | pKd (MPP7, Q5T2T1) | pKd (TJP1_2, Q07157) | pKd (SNTG1, Q9NSN8) | pKd (NHERF2_2, Q15599) | pKd (SNTA1, Q13424) | pKd (SYNJ2BP, P57105) | pKd (SNTG2, Q9NY99) | pKd (Inadl_3, Q8NI35) | pKd (PCLO, Q9Y6V0) | pKd (Inadl_4, Q8NI35) | pKd (NOS1, P29475) | pKd (LNX2_3, Q8N448) | pKd (PARD3_3, Q8TEW0) | pKd (PARD3B_1, Q8TEW8) | pKd (HTRA4, P83105) | pKd (Inadl_9, Q8NI35) | also measured |
| --- | --- | --- | --- | --- | --- | --- | --- | --- | --- | --- | --- | --- | --- | --- | --- | --- | --- | --- | --- | --- | --- |
| WAKEKQHTRL [SLC17A1, Q14916] | below the threshold | 4.89 | 4.84 | below the threshold | below the threshold | below the threshold | below the threshold | 4.39 | 3.77 | below the threshold | 4.15 | below the threshold | below the threshold | below the threshold | 3.71 | below the threshold | below the threshold | 4.31 | below the threshold | below the threshold | pKd (NHERF4_1, Q86UT5-2): 4.07; pKd (CARD11, Q9BXL7): below the threshold; pKd (SCRIB_2, Q14160): below the threshold; pKd (DLG2_3, Q15700): below the threshold; pKd (AHNAK1, Q09666): below the threshold; pKd (MAGI2_5, Q86UL8): below the threshold |
| YAEKRMLTEV [KCNA6, P17658] | below the threshold | 4.65 | 4.91 | below the threshold | below the threshold | below the threshold | 3.57 | below the threshold | below the threshold | 4.05 | below the threshold | below the threshold | below the threshold | below the threshold | below the threshold | below the threshold | below the threshold | below the threshold | 4.38 | below the threshold | pKd (NHERF4_1, Q86UT5-2): below the threshold; pKd (CARD11, Q9BXL7): below the threshold; pKd (SCRIB_2, Q14160): below the threshold; pKd (DLG2_3, Q15700): 3.98; pKd (AHNAK1, Q09666): below the threshold; pKd (MAGI2_5, Q86UL8): 4.28 |
| PALKNGQYWV [CSPG4, Q6UVK1] | 3.79 | below the threshold | below the threshold | 5.46 | 3.96 | 4.69 | below the threshold | below the threshold | below the threshold | below the threshold | below the threshold | 3.58 | below the threshold | below the threshold | 4.09 | below the threshold | 3.96 | 3.71 | 4.14 | 4.16 | pKd (NHERF4_1, Q86UT5-2): 3.5; pKd (CARD11, Q9BXL7): below the threshold; pKd (SCRIB_2, Q14160): below the threshold; pKd (DLG2_3, Q15700): below the threshold; pKd (AHNAK1, Q09666): below the threshold; pKd (MAGI2_5, Q86UL8): below the threshold |
| FLVTEFNVML [DFNB31, Q9P202] | below the threshold | 3.89 | below the threshold | below the threshold | below the threshold | below the threshold | below the threshold | 4.04 | 3.73 | below the threshold | below the threshold | 4.73 | below the threshold | below the threshold | below the threshold | below the threshold | 4.49 | 5.21 | below the threshold | below the threshold | pKd (NHERF4_1, Q86UT5-2): 3.9; pKd (CARD11, Q9BXL7): below the threshold; pKd (SCRIB_2, Q14160): below the threshold; pKd (DLG2_3, Q15700): below the threshold; pKd (AHNAK1, Q09666): below the threshold; pKd (MAGI2_5, Q86UL8): below the threshold |
